According to patent US20190106501A1 (FRED HUTCHINSON CANCER RESEARCH CENTER, published 2019):

Molecular target: T1, CD20 (human, UniProt P11836 1-297)
T1 sequence (looked up): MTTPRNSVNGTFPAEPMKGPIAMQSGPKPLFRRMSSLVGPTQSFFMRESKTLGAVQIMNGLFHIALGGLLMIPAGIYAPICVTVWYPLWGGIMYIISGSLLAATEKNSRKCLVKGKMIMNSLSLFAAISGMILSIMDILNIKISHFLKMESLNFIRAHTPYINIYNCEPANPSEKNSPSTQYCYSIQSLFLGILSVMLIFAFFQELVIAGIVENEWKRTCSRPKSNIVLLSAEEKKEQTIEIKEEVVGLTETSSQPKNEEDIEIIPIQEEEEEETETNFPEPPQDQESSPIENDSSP
Experiment: cell-based or functional assay

B1: rituximab (antibody, V domains shown)
VH: QVQLQQPGAELVKPGASVKMSCKASGYTFTSYNMHWVKQTPGRGLEWIGAIYPGNGDTSYNQKFKGKATLTADKSSSTAYMQLSSLTSEDSAVYYCARSTYYGGDWYFNVWGAGTTVTVSA
VL: QIVLSQSPAILSASPGEKVTMTCRASSSVSYIHWFQQKPGSSPKPWIYATSNLASGVPVRFSGSGSGTSYSLTISRVEAEDAATYYCQQWTSNPPTFGGGTKLEIK
cell size (forward scatter) of CAR T cells after stimulation with Raji, Daudi or Rec-1 cells pre-incubated with rituximab, relative to no rituximab: > 85%
cell size (forward scatter) of CAR T cells incubated with FL-18 cells at 200 µg/ml rituximab, relative to control: 73%
proliferation (CFSE dilution) of Leu16-28-BB-z-tEGFR CAR T cells with Raji, Daudi, Rec-1, FL-18 targets, rituximab up to 200 µg/ml, relative to no rituximab: > 96%
